“And” between values parts separate entries of the source, which are not always exact repeats. Equal values may be shown once.
B1: ARH3: 39-kDa recombinant protein having both poly(ADP-ribose) glycohydrolase activity and O-acetyl-ADP-ribose hydrolase activity (protein, listed as Homo sapiens)
chain: MAAAAMAAAAGGGAGAARSLSRFRGCLAGALLGDCVGSFYEAHDTVDLTSVLRHVQSLEPDPGTPGSERTEALYYTDDTAMARALVQSLLAKEAFDEVDMAHRFAQEYKKDPDRGYGAGVVTVFKKLLNPKCRDVFEPARAQFNGKGSYGNGGAMRVAGISLAYSSVQDVQKFARLSAQLTHASSLGYNGAILQALAVHLALQGESSSEHFLKQLLGHMEDLEGDAQSVLDARELGMEERPYSSRLKKIGELLDQASVTREEVVSELGNGIAAFESVPTAIYCFLRCMEPDPEIPSAFNSLQRTLIYSISLGGDTDTIATMAGAIAGAYYGMDQVPESWQQSCEGYEETDILAQSLHRVFQKS
B2: human ARH3: human ARH3 amino acid sequence SEQ ID NO: 2, synthesized as GST-fusion product in E. coli (protein, listed as Homo sapiens)
chain: B1 chain
modifications: GST fusion

Legend:
[1] = Hydrolysis of O-acetyl-[14C]ADP-ribose by ARH proteins / PARG (RP-HPLC); assay type: biochemical
Experimental: FIG. 13A is a graph illustrating the results from incubation of 1.5 pmol of mouse ARH3 with or without 5 mM DTT and/or 10 mM MgCl2 as described in FIG. 11B with incubation for 1 h at 30° C. FIG. 13B is a graph illustrating the results from incubation of 1.5 pmol of wild type or mutant human (D77-78) ARH3 or 20 mU of PARG for 2 h at 30° C. *D77,78, assays incubated with 15 pmol of mutant human ARH3 (D77, D78).
FIG. 14A is a graph of the results from incubation with the indicated amount of mouse ARH1, 2, or 3 for 2 h at 30° C. FIG. 14B is a graph of the results from incubation with 230 pmol of mouse ARH1 at 30° C. for the indicated time.
Mouse ARH3 (2 pmol) and 2.5 μM O-acetyl-[^14C]ADP-ribose (5,000 cpm) in 200 μl of buffer containing 50 mM potassium phosphate (pH 7.0), 10 mM MgCl2 and 5 mM DTT were incubated for 2 h at 30° C., before separation of substrate and products using RP-HPLC as described below.
Hydrolysis of O-acetyl-[^14C]ADP-ribose catalyzed by ARH3. Assays containing the indicated concentration of O-acetyl-[^14C]-ADP-ribose (0.1 to 2 nmol, 1,000 to 20,000 cpm) and 1.5 pmol of ARH3 in 200 μl of buffer (50 mM KPO4 (pH 7.0), 10 mM MgCl2, 5 mM DTT) were incubated at 30° C. for 20 min. Substrate and products were separated using RP-HPLC. Amounts of product were corrected for ADP-ribose produced in the absence of ARH3 before calculation of hydrolysis rates.
Because O-acetyl-ADP-ribose was known to be hydrolyzed at alkaline pH Tanny and Moazed (2001), Proc Natl Acad Sci USA. 98(2):415-20, Epub Dec. 26, 2000), it was generated at pH 7.0 in the presence of [^14C-adenine] β-NAD, Sir2, and acetylated histone H3 peptide (FIG. 11A), and the products of Sir2 and ARH3 were analyzed using reverse-phase HPLC at the same pH (FIGS. 11A,B). The products of the ARH3-catalyzed reaction were also analyzed by high resolution-polyacrylamide gel electrophoresis (FIG. 11C). O-acetyl-[^14C]ADP-ribose hydrolase activity was time and ARH3 dependent (FIG. 12) and essentially completely dependent on Mg^2+ (FIG. 13A).
O-acetyl-ADP-ribose hydrolysis by ARH1 was time and ARH1 dependent (FIG. 14b).

NIH3T3 cells = assay: Effect of H2O2 on ARH3-transfected NIH3T3 cells (Cell-Counting Kit-8); assay type: cell-based; conditions: stably ARH3 cDNA-transfected NIH3T3 cells vs empty vector; H2O2 for 24 hours
Experimental: FIG. 16 is a line graph showing the effect of H2O2 on ARH3-transfected NIH3T3 cells. NIH3T3 cells were transfected with ARH3 cDNA using Lipofectamin transfection reagent (INVITROGEN™). After transfection, the cells were cultured and exposed to 200 μg/ml of Hygromycin G (INVITROGEN™) for 3-4 weeks to select stably transfected clones. Positive clones derived from single Hygromycin G-resistant cells were then isolated by cloning rings and further grown under the same conditions. As controls, NIH3T3 cells were transfected with an empty pcDNA3.1 vector (INVITROGEN™) and subjected to the same selection and cloning procedures as described above. The cells were plated in 96-well plates at 1×10^4 cells/well, and incubated for 24 h at 37° C. in a humidified incubator. The cells were then challenged at the indicated concentrations of H2O2 for 24 hours. Cell survival was determined by using Cell-Counting Kit-8 (Dojindo). The experiments were repeated twice with similar results.
To test the role of ARH3 in the cellular response to oxidative stress, NIH3T3 cells were transfected with ARH3 cDNA using Lipofectamin transfection reagent (Invitrogen). […]
The cells were plated in 96-well plates at 1×10^4 cells/well, and incubated for 24 hours at 37° C. in a humidified incubator. […] Cell viability was determined by using Cell-Counting Kit-8 (Dojindo). […]

ADP-ribose binding assay = conditions: 1 μM ARH3, 3 μM [14C]ADP-ribose, 30° C., 16 h
Experimental: ADP-ribose binding assay. [^14C]ADP-ribose was generated by incubation overnight at 30° C. of 80 μM (10 μCi) [adenine-U-^14C]NAD with 50 μl of RT6.2 solution (5 nmol/h NADase activity; gift from Dr. Sunhee Park, NHLBI, National Institutes of Health, Bethesda, Md.) in 250 μl of 50 mM potassium phosphate, pH 7.5, and purified by HPLC using Zorbax Sax column as described above. [^14C]ADP-ribose, eluted at 40 min, was stored at −20° C.
To assess protein binding, 1 μM human wild type or D77N/D78N mutant ARH3 was incubated (30° C., 16 h) with 3 μM [^14C]ADP-ribose in 50 mM potassium phosphate buffer, pH 7.5, without or with 10 mM MgCl2, and/or 5 mM DTT (total volume 100 μl). A sample (90 μl) was applied to a column (0.5×4 cm) of Affi-Gel boronate (100 mg, Bio-Rad) which was equilibrated with 0.1 M glycine, pH 9.0, containing 0.1 M NaCl, with or without 10 mM MgCl2, and/or 5 mM DTT, and eluted with five 1-ml portions of the same solution. The total eluate, containing ARH with bound ADP-ribose was collected for liquid scintillation counting.
After incubation of wild-type or mutant ARH3 (1 μM) with [^14C]ADP-ribose (3 μM) (30° C., 16 h) without or with 10 mM MgCl2 and/or 5 mM DTT (total volume 100 μl), unbound ADP-ribose was removed by binding to Affi-gel boronate (Bio-Rad), and ARH3 with ADP-ribose bound, was collected for radioassay. […]

[2] = Poly(ADP-ribose) hydrolysis (autoradiography, high resolution PAGE, HPLC); assay type: biochemical
Experimental: Poly(ADP-ribose) hydrolysis by autoradiography. [^32P]poly(ADP-ribose)PARP (500 ng of PARP with poly(ADP-ribose) was incubated (37° C., 2 h) with 2 μM ARH in 25 μl of 50 mM potassium phosphate buffer, pH 7.5, with or without 10 mM MgCl2 and/or 5 mM DTT. Reactions were stopped by adding 6 μl of 5× Laemmli buffer. Samples (20 μl) of proteins were separated by SDS-PAGE in 4-20% gels and transferred to nitrocellulose membranes that were exposed to X-ray film (Kodak) for 10 h.
Hydrolysis of poly(ADP-ribose) by PARG and ARH3. Purified [^32P] poly(ADP-ribose) (5.5×10^5 cpm, ˜300 nM ADP-ribose) was incubated for the indicated time at 37° C. in 25 μl of 50 mM potassium phosphate, pH 7.5, containing 10 mM MgCl2 and 5 mM DTT with enzyme or other additions as indicated and terminated by addition of 25 μl of 2× electrophoresis buffer (Invitrogen). [^32P]AMP was generated by incubation (37° C., 3 h) of 10 μM [^32P] NAD (10 μCi/reaction) with pyrophosphatase (40 units/mg from SIGMA, 1 mg/ml) in 25 μl of 50 mM KPO4, pH 7.5, and 10 mM MgCl2. [^32P] ADP-ribose was generated in a 25 μl mixture containing 50 mM KPO4, pH 7.5, 25 μg of activated CTA, 10 μM [^32P] NAD (10 μCi/reaction), 10 mM MgCl2, and 5 mM DTT, which was incubated at 30° C. overnight. [^32P] phosphoribosyl-AMP was generated by incubation (37° C., 3 h) of [^32P]poly(ADP-ribose) (5.5×10^5 cpm, ˜300 nM ADP-ribose) with Crotalus adamanteus phosphodiesterase (10 mU/reaction), 25 μl of 50 mM KPO4, pH 7.5, 10 mM MgCl2, and 5 mM DTT. Identities of AMP and ADP-ribose standards were confirmed by HPLC on C18 and SAX columns respectively.
High resolution Polyacrylamide Gel Electrophoresis (PAGE). Polyacrylamide (20%) gels (20×20×0.15 cm) containing polyacrylamide and bis(acrylamide), in a ratio of 19:1, 100 mM Tris-borate, pH 8.3, 2 mM EDTA, 4.4 mM ammonium persulfate, and 3.4 mM TEMED with electrophoresis carried out for 2 h at 400V with 50 mM Tris-borate, pH 8.3, 1 mM EDTA, before application of samples (15 μl) were used for analysis of poly(ADP-ribose) degradation. Subsequent electrophoresis at 400V was stopped when bromophenol blue (BPB) had moved 9 cm from the origin. Gels were exposed to X-ray films (Kodak).
HPLC analysis. HPLC, Hewlett-Packard series 1100 equipped with a diode-array spectrophotometric detector set at 254 nm, was used for separation of reaction products. For anion exchange perfusion chromatography, Zorbax SAX column (4.6×250 mm; DuPont, Wilmington Del.) was washed with 20 mM potassium phosphate, pH 4.5, for 30 min, followed by a linear gradient of 0-1M NaCl in the same buffer for 10 min (30-40 min), then same buffer with 1M NaCl for 10 min (40-50 min) at a flow rate of 1 ml/min. Nicotinamide was eluted at 3 min, NAD at 10 min, and ADP-ribose at 40 min. For reverse phase, Discovery C18 column (4.6×250 mm; SUPELCO, Bellefonte Pa.) was used. Samples were separated isocratically with 100 mM potassium phosphate, pH 6.0 containing 7% methanol at a same flow rate of 1 ml/min. ADP-ribose was eluted at 6 min, NAD at 8 min, nicotinamide 9 min.
Poly(ADP-ribose)PARP was used as substrate to assay potential poly(ADP-ribose) hydrolase activities of recombinant ARH1, 2 or 3. Products were identified by autoradiography and HPLC. Fractions (1 ml) were collected for liquid scintillation counting to quantify [^14C]ADP-ribose, which was eluted in fractions from 34 min to 43 min. Because ARH1 activity may require both DTT and Mg^2+, depending on species (Takada et al. (1993) J. Biol. Chem. 268:17837-17843; Moss et al. (1992) J. Biol. Chem. 267:10481-10488), these reactions were performed with or without 10 mM MgCl2, and/or 5 mM DTT. […] Degradation of [^32P]poly(ADP-ribose) by ARH3 was enhanced by 10 mM MgCl2 (FIG. 4A). Data were similar with mouse ARH3.
Samples of [^14C] ADP-ribosylated PARP (250 ng, 15,000 cpm, ˜850 nM ADP-ribose) were incubated at 37° C. (total volume, 100 μl) with human ARH3 as indicated. […]

Row | [14C]ADP-ribose binding (ADP-ribose binding assay) | Molecule | Km ([1]; 1.5 pmol ARH3, 30° C., 20 min, pH 7.0, 10 mM MgCl2, 5 mM DTT) [µM] | Vmax, O-acetyl-ADP-ribose hydrolysis ([1]; 1.5 pmol ARH3, 30° C., 20 min, pH 7.0, 10 mM MgCl2, 5 mM DTT, means ±½ range of duplicates) [nmol/min/mg] | kcat, O-acetyl-ADP-ribose hydrolysis ([1]; comparison with mNudT5) [s⁻¹] | Rate of O-acetyl-ADP-ribose hydrolysis relative to that of ARH1 ([1]; times / -fold the rate with ARH1, recombinant mouse proteins, 2 h at 30° C.) | Cell viability after H2O2 challenge (NIH3T3 cells) | Substrate remaining, [14C]poly(ADP-ribose)PARP ([2]; 40 nM hydrolase, 60 min, 37° C.) [%] | Release of [14C]ADP-ribose from [14C]poly(ADP-ribose)PARP relative to wild-type ARH3 ([2]; 50 nM human ARH3 (wild-type or mutant), ~2 μM ADP-ribose, HPLC C18) [%] | Poly(ADP-ribose) hydrolysis (in words) ([2]; [32P]poly(ADP-ribose) or poly(ADP-ribose)PARP, 37° C., autoradiography / PAGE / HPLC)
1 |  | B1 | 7.4 ± 0.7 | 173 ± 8.4 | 0.0052 ± 0.0033 | 250 and > 250 | significantly reduced the toxic effect of H2O2 |  |  | 
2 | similar | B2 |  |  |  |  |  | ~75 | 100 | hydrolyzed

Source: patent US7670806B2, “ADP-ribosyl acceptor hydrolase 3 (ARH3) polypeptides and methods of use” (The United States of America as represented by the …, priority 2005, dated 2010)
